From patent US20060121570A1 (published 2006)

B1: fibrinogen (ligand)
chain 1: ADSGEGDFLAEGGGVRGPRVVERHQSACKDSDWPFCSDEDWNYKCPSGCRMKGLIDEVNQDFTNRINKLKNSLFEYQKNNKDSHSLTTNIMEILRGDFSSANNRDNTYNRVSEDLRSRIEVLKRKVIEKVQHIQLLQKNVRAQLVDMKRLEVDIDIKIRSCRGSCSRALAREVDLKDYEDQQKQLEQVIAKDLLPSRDRQHLPLIKMKPVPDLVPGNFKSQLQKVPPEWKALTDMPQMRMELERPGGNEITRGGSTSYGTGSETESPRNPSSAGSWNSGSSGPGSTGNRNPGSSGTGGTATWKPGSSGPGSTGSWNSGSSGTGSTGNQNPGSPRPGSTGTWNPGSSERGSAGHWTSESSVSGSTGQWHSESGSFRPDSPGSGNARPNNPDWGTFEEVSGNVSPGTRREYHTEKLVTSKGDKELRTGKEKVTSGSTTTTRRSCSKTVTKTVIGPDGHKEVTKEVVTSEDGSDCPEAMDLGTLSGIGTLDGFRHRHPDEAAFFDTASTGKTFPGFFSPMLGEFVSETESRGSESGIFTNTKESSSHHPGIAEFPSRGKSSSYSKQFTSSTSYNRGDSTFESKSYKMADEAGSEADHEGTHSTKRGHAKSRPV
chain 2: QGVNDNEEGFFSARGHRPLDKKREEAPSLRPAPPPISGGGYRARPAKAAATQKKVERKAPDAGGCLHADPDLGVLCPTGCQLQEALLQQERPIRNSVDELNNNVEAVSQTSSSSFQYMYLLKDLWQKRQKQVKDNENVVNEYSSELEKHQLYIDETVNSNIPTNLRVLRSILENLRSKIQKLESDVSAQMEYCRTPCTVSCNIPVVSGKECEEIIRKGGETSEMYLIQPDSSVKPYRVYCDMNTENGGWTVIQNRQDGSVDFGRKWDPYKQGFGNVATNTDGKNYCGLPGEYWLGNDKISQLTRMGPTELLIEMEDWKGDKVKAHYGGFTVQNEANKYQISVNKYRGTAGNALMDGASQLMGENRTMTIHNGMFFSTYDRDNDGWLTSDPRKQCSKEDGGGWWYNRCHAANPNGRYYWGGQYTWDMAKHGTDDGVVWMNWKGSWYSMRKMSMKIRPFFPQQ
chain 3: YVATRDNCCILDERFGSYCPTTCGIADFLSTYQTKVDKDLQSLEDILHQVENKTSEVKQLIKAIQLTYNPDESSKPNMIDAATLKSRKMLEEIMKYEASILTHDSSIRYLQEIYNSNNQKIVNLKEKVAQLEAQCQEPCKDTVQIHDITGKDCQDIANKGAKQSGLYFIKPLKANQQFLVYCEIDGSGNGWTVFQKRLDGSVDFKKNWIQYKEGFGHLSPTGTTEFWLGNEKIHLISTQSAIPYALRVELEDWNGRTSTADYAMFKVGPEADKYRLTYAYFAGGDAGDAFDGFDFGDDPSDKFFTSHNGMQFSTWDNDNDKFEGNCAEQDGSGWWMNKCHAGHLNGVYYQGGTYSKASTPNGYDNGIIWATWKTRWYSMKKTTMKIIPFNRLTIGEGQQHHLGGAKQAGDV
B2: circular peptide CSFGRNDSRNC derived from the HCDR3 of MTF-40 (peptide)
peptide: CSFGRNDSRNC
HELM: PEPTIDE1{[ac].C.S.F.G.R.N.D.S.R.N.C.[am]}$PEPTIDE1,PEPTIDE1,2:R3-12:R3$$$V2.0
SMILES: CC(=O)N[C@H]1CSSC[C@@H](C(N)=O)NC(=O)[C@H](CC(N)=O)NC(=O)[C@H](CCCNC(=N)N)NC(=O)[C@H](CO)NC(=O)[C@H](CC(=O)O)NC(=O)[C@H](CC(N)=O)NC(=O)[C@H](CCCNC(=N)N)NC(=O)CNC(=O)[C@H](Cc2ccccc2)NC(=O)[C@H](CO)NC1=O
notes: also called peptide 40 (circular)
B3: circular peptide CSFGRTDQRNC derived from the HCDR3 of MTF-32 (peptide)
peptide: CSFGRTDQRNC
HELM: PEPTIDE1{[ac].C.S.F.G.R.T.D.Q.R.N.C.[am]}$PEPTIDE1,PEPTIDE1,2:R3-12:R3$$$V2.0
SMILES: CC(=O)N[C@H]1CSSC[C@@H](C(N)=O)NC(=O)[C@H](CC(N)=O)NC(=O)[C@H](CCCNC(=N)N)NC(=O)[C@H](CCC(N)=O)NC(=O)[C@H](CC(=O)O)NC(=O)[C@H]([C@@H](C)O)NC(=O)[C@H](CCCNC(=N)N)NC(=O)CNC(=O)[C@H](Cc2ccccc2)NC(=O)[C@H](CO)NC1=O
notes: also called peptide 32 (circular)

Tests used:
[1] = target: T1, platelet integrin αIIbβ3 (human platelet glycoprotein gpIIb/IIIa), purified (human, UniProt P08514 32-1039; P05106 27-788); test: SPR (BIAcore), αIIbβ3 immobilized
T1 construct: mature

[2] = target: T1, platelet integrin αIIbβ3 (human …); test: inhibition of 125I-fibrinogen binding to purified αIIbβ3

Row | Binder | kon [1] [M⁻¹ s⁻¹] | IC50 [2] [nM]
1 | B1 | 600000 | –
2 | Ac-GCSFGRNDSRNCY-NH2 (cysteine pairing not given here, also called peptide 40 (linear)) [linear peptide GCSFGRNDSRNCY derived from the HCDR3 of MTF-40] | – | 500
3 | B2 | – | 500
4 | Ac-GCSFGRTDQRNCY-NH2 (cysteine pairing not given here, also called peptide 32 (linear)) [linear peptide GCSFGRTDQRNCY derived from the HCDR3 of MTF-32] | – | 2000
5 | B3 | – | 2000
